{
  "source": "patent US20040170614A1",
  "assay_in_all_cases": "cell-based or functional assay",
  "key": {"hmCD40ΔT6 (human; mouse)": {"molecular_target": "hmCD40ΔT6 (human; mouse) (UniProt P25942)"}, "[1]": {"molecular_target": "human-mouse hybrid CD40 (hmCD40) (human; mouse) (UniProt P25942)"}, "[2]": {"molecular_target": "mouse CD40 (mCD40) (mouse) (UniProt P27512)", "sequence (P27512 20-289)": "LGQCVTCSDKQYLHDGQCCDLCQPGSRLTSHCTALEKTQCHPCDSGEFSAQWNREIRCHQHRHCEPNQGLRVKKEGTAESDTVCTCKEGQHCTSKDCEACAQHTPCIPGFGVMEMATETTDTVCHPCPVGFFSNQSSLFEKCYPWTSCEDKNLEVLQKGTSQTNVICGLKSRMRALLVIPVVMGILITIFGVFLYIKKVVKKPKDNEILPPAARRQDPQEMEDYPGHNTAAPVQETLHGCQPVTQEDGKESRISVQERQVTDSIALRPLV"}},
  "data": [
    {"substance": "anti-hCD40 mAb G28-5 (antibody)", "values": [
      {"measurement": "IgM secretion (Pfc), CH12.LX+hmCD40ΔT6 cells", "setting": "hmCD40ΔT6 (human; mouse)", "result": 187000, "unit": "Pfc"},
      {"measurement": "IgM secretion (Pfc), CH12.T2-/-+hmCD40ΔT6 cells", "setting": "hmCD40ΔT6 (human; mouse)", "result": 34000, "unit": "Pfc"},
      {"measurement": "IgM secretion (Pfc), CH12.LX+hmCD40 cells", "setting": "[1]", "result": 430000, "unit": "Pfc"},
      {"measurement": "IgM secretion (Pfc), CH12.T2-/-+hmCD40 cells", "setting": "[1]", "result": 376000, "unit": "Pfc"}
    ]},
    {"substance": "anti-mCD40 mAb 1C10 (antibody)", "values": [
      {"measurement": "IgM secretion (Pfc), CH12.LX+hmCD40 cells", "setting": "[2]", "result": 431000, "unit": "Pfc"},
      {"measurement": "IgM secretion (Pfc), CH12.LX+hmCD40ΔT6 cells", "setting": "[2]", "result": 378000, "unit": "Pfc"},
      {"measurement": "IgM secretion (Pfc), CH12.T2-/-+hmCD40 cells", "setting": "[2]", "result": 399000, "unit": "Pfc"},
      {"measurement": "IgM secretion (Pfc), CH12.T2-/-+hmCD40ΔT6 cells", "setting": "[2]", "result": 340000, "unit": "Pfc"}
    ]}
  ]
}
